{"source": "patent US20230295227A1", "about": "“COMPOUNDS FOR USE IN DIAGNOSIS AND/OR MONITORING OF FIBROSIS” (ANTAROS TRACER AB, priority 2020, published 2023)", "key": {"[1]": {"assay": "Stability testing of peptides at pH 7.4 (PBS), HPLC Method A", "type": "physicochemical", "procedure": "(§1) Analytical high performance liquid chromatography (HPLC) was performed on a Dionex UltiMate 3000 HPLC system with a Bruker amazon SL ion trap mass spectrometer and detection by UV (diode array detector, 214, 254, and 280 nm) and electrospray ionization (ESI) MS using a Penomenex Kinetex C18 column (50×3.0 mm, 2.6 μm particle size, 100 Åpore size) and a Penomenex Kinetex Biphenyl column (50×4.6 mm, 2.6 μm particle size, 100 Åpore size). A gradient of H2O/CH3CN/0.05% HCOOH was used at a flow rate of 1.5 mL/min.\nMethod A: Detection at 214 nm column: Penomenex Kinetex C18 (50×3.0 mm, 2.6 μm particle size, 100 Åpore size) solvent: H2O+0.05% HCOOH: CH3CN+0.05% HCOOH (flow 1.5 ml/min) […]\n(§2) For stability testing, 500 μmol pure compound was dissolved in 1 mL PBS buffer (pH 7.4), or 1 mL sodium acetate buffer (pH 4.5, 100 mM). For the peptides stored in PBS, the solutions were stored for 14 days at 4° C. and 23° C. At 0 h, 1 day, 7 days and 14 days, the solutions were analyzed by HPLC (analytical HPLC Method A and Method B).\n(§3) The “% Purity” at each time point is defined by the % Relative purity at time point “n” (n=1 day, 7 days, 14 days in pH 7.4 PBS and 1 day at pH 4.5 NaAc) in relation to the % Relative purity at t0 following the equation:\n(§4) % Purity at tn=[(% Relative purity tn)×100)]/% Relative purity t0 […]\nSamples were incubated up to 14 days at 23° C. and 4° C. and were analyzed using HPLC Method A."}, "[2]": {"assay": "Stability testing of peptides at pH 4.5 (sodium acetate buffer), HPLC Method B", "type": "physicochemical", "procedure": "as §1\nMethod B: Detection at 214 nm\nFor the peptides stored in sodium acetate buffer (pH 4.5, 100 mM) the solutions were analyzed by HPLC (analytical HPLC Method B) after 0 h, and 1 day incubation at 4° C. and 23° C.\nas §3\n% Purity at tn=[(% Relative purity tn)×100)]/% Relative purity t0\nSamples were incubated for 1 day at 23° C. and 4° C. and were analyzed using HPLC Method B."}, "[3]": {"assay": "Stability testing of peptides at pH 7.4 (PBS), HPLC Method B", "type": "physicochemical", "procedure": "as §1\nMethod B: Detection at 214 nm column: Penomenex Kinetex Biphenyl column (50×4.6 mm, 2.6 μm particle size, 100 Åpore size) solvent: H2O+0.05% HCOOH: CH3CN+0.05% HCOOH (flow 1.5 ml/min) […]\nas §2, §3, §4\nSamples were incubated up to 14 days at 23° C. and 4° C. and were analyzed using HPLC Method B."}, "[4]": {"conditions": "rat, in vivo; cited from earlier work"}, "in vivo": {"assay": "in vivo", "set-up": "species or system Sprague Dawley rats", "conditions": "rat", "procedure": "Sprague Dawley rats (obtained from Taconic, n=22, male, healthy, weight 287±25 g) were used for ex vivo organ distribution assessment of biodistribution and dosimetry.\nFive MBq of [^68Ga]Ga-1 (n=10) (corresponding to 5-10 μg) in phosphate-buffered saline (PBS, pH 7.4) was injected intravenously as a bolus to conscious rats. The animals were euthanized by a CO2—O2 mixture 10, 20, 40, 60 and 120 minutes post-injection. The radioactivity of the excised organs was measured in a gamma counter. Samples from blood, heart, lung, liver, spleen, adrenal glands, kidneys, intestines, with or without contents, muscle, testis, bone, brain, pancreas, urine bladder and bone marrow were collected. The remaining carcass was also measured in order to monitor the radioactivity elimination and recovery. The radioactivity readings were decay-corrected to the time of the injection, and the results were expressed as standardized uptake values (SUV).\nThe biodistribution of [^68Ga]Ga-1 ([^68Ga]Ga—NH—(CH2CH2O)2—CH2—C(O)-LRELHLNNN—OH) was carried out as described above."}, "[5]": {"conditions": "mouse, in vivo; cited from earlier work"}, "[6]": {"conditions": "male, Sprague Dawley, iv, 5 MBq, total radioactivity"}}, "note": "Where two headings read alike, the source gives them in different places."}
{"compound": "DOTA-NH—(CH2CH2O)2—CH2—C(O)-L-R-E-L-H—V-N—N—N—OH [Compound 6]", "values": [{"measurement": "% Purity after 1 day", "setting": "[1]; 4° C.", "value": ">99", "unit": "%"}, {"measurement": "% Purity after 7 days", "setting": "[1]; 4° C.", "value": ">99", "unit": "%"}, {"measurement": "% Purity after 1 day", "setting": "[1]; 23° C.", "value": 100, "unit": "%"}, {"measurement": "% Purity after 7 days", "setting": "[1]; 23° C.", "value": ">99", "unit": "%"}, {"measurement": "% Purity after 1 day", "setting": "[2]; 4° C.", "value": ">99", "unit": "%"}, {"measurement": "% Purity after 1 day", "setting": "[2]; 23° C.", "value": ">99", "unit": "%"}, {"measurement": "% Purity after 1 day", "setting": "[3]; 4° C.", "value": ">99", "unit": "%"}, {"measurement": "% Purity after 7 days", "setting": "[3]; 4° C.", "value": ">99", "unit": "%"}, {"measurement": "% Purity after 1 day", "setting": "[3]; 23° C.", "value": ">99", "unit": "%"}, {"measurement": "% Purity after 7 days", "setting": "[3]; 23° C.", "value": ">99", "unit": "%"}]}
{"compound": "DOTA-NH—(CH2CH2O)3—CH2—C(O)-L-R-E-L-H-L-N—N—N—OH [Compound 11]", "values": [{"measurement": "% Purity after 1 day", "setting": "[1]; 4° C.", "value": ">99", "unit": "%"}, {"measurement": "% Purity after 7 days", "setting": "[1]; 4° C.", "value": ">97", "unit": "%"}, {"measurement": "% Purity after 1 day", "setting": "[1]; 23° C.", "value": ">99", "unit": "%"}, {"measurement": "% Purity after 7 days", "setting": "[1]; 23° C.", "value": ">96", "unit": "%"}, {"measurement": "% Purity after 1 day", "setting": "[2]; 4° C.", "value": ">99", "unit": "%"}, {"measurement": "% Purity after 1 day", "setting": "[2]; 23° C.", "value": ">98", "unit": "%"}, {"measurement": "% Purity after 1 day", "setting": "[3]; 4° C.", "value": ">99", "unit": "%"}, {"measurement": "% Purity after 7 days", "setting": "[3]; 4° C.", "value": ">99", "unit": "%"}, {"measurement": "% Purity after 1 day", "setting": "[3]; 23° C.", "value": ">99", "unit": "%"}, {"measurement": "% Purity after 7 days", "setting": "[3]; 23° C.", "value": ">99", "unit": "%"}]}
{"compound": "[^68Ga]Ga-NODAGA-Collagelin [Comparative Tracer 3]", "values": [{"measurement": "SUV Kidney", "setting": "[4]", "value": 11.1}, {"measurement": "SUV Liver", "setting": "[4]", "value": 0.8}]}
{"compound": "CC(C)C[C@H](NC(=O)COCCOCCNC(=O)CN1CCN(CC(=O)O)CCN(CC(=O)O)CCN(CC(=O)O)CC1)C(=O)N[C@@H](CCCNC(=N)N)C(=O)N[C@@H](CCC(=O)O)C(=O)N[C@@H](CC(C)C)C(=O)N[C@@H](Cc1c[nH]cn1)C(=O)N[C@@H](CC(C)C)C(=O)N[C@@H](CC(N)=O)C(=O)N[C@@H](CC(N)=O)C(=O)N[C@@H](CC(N)=O)C(=O)O", "note": "[[^68Ga]Ga-1, [^68Ga]Ga-DOTA-NH—(CH2CH2O)2—CH2—C(O)-LRELHLNNN—OH, metal not drawn]", "values": [{"measurement": "SUV at 1 h", "setting": "in vivo; [6]", "value": "< 1", "unit": "SUV"}, {"measurement": "SUV at 2 h", "setting": "in vivo; [6]", "value": 1, "unit": "SUV"}, {"measurement": "SUV Kidney", "setting": "in vivo", "value": 1.7}, {"measurement": "SUV Liver", "setting": "in vivo", "value": 0.7}]}
{"compound": "[^68Ga]Ga-NOTA-Collagelin [Comparative Tracer 2]", "values": [{"measurement": "SUV Kidney", "setting": "[5]", "value": 10}, {"measurement": "SUV Kidney", "setting": "[4]", "value": 6.2}, {"measurement": "SUV Liver", "setting": "[4]", "value": 0.5}]}
{"compound": "CC(C)C[C@H](NC(=O)COCCOCCNC(=O)CN1CCN(CC(=O)O)CCN(CC(=O)O)CCN(CC(=O)O)CC1)C(=O)N[C@@H](CCCNC(=N)N)C(=O)N[C@@H](CCC(=O)O)C(=O)N[C@@H](CC(C)C)C(=O)N[C@@H](Cc1c[nH]cn1)C(=O)N[C@@H](CC(C)C)C(=O)N[C@@H](CC(N)=O)C(=O)N[C@@H](CC(N)=O)C(=O)N[C@@H](CC(N)=O)C(=O)O", "note": "[Compound 1, DOTA-NH—(CH2CH2O)2—CH2—C(O)-L-R-E-L-H-L-N—N—N—OH]", "values": [{"measurement": "% Purity after 1 day", "setting": "[1]; 4° C.", "value": ">99", "unit": "%"}, {"measurement": "% Purity after 7 days", "setting": "[1]; 4° C.", "value": ">99", "unit": "%"}, {"measurement": "% Purity after 14 days", "setting": "[1]; 4° C.", "value": ">99", "unit": "%"}, {"measurement": "% Purity after 1 day", "setting": "[1]; 23° C.", "value": ">99", "unit": "%"}, {"measurement": "% Purity after 7 days", "setting": "[1]; 23° C.", "value": ">98", "unit": "%"}, {"measurement": "% Purity after 14 days", "setting": "[1]; 23° C.", "value": ">97", "unit": "%"}, {"measurement": "% Purity after 1 day", "setting": "[2]; 4° C.", "value": ">95", "unit": "%"}, {"measurement": "% Purity after 1 day", "setting": "[2]; 23° C.", "value": ">96", "unit": "%"}, {"measurement": "% Purity after 1 day", "setting": "[3]; 4° C.", "value": 100, "unit": "%"}, {"measurement": "% Purity after 7 days", "setting": "[3]; 4° C.", "value": ">98", "unit": "%"}, {"measurement": "% Purity after 14 days", "setting": "[3]; 4° C.", "value": ">96", "unit": "%"}, {"measurement": "% Purity after 1 day", "setting": "[3]; 23° C.", "value": ">99", "unit": "%"}, {"measurement": "% Purity after 7 days", "setting": "[3]; 23° C.", "value": ">98", "unit": "%"}, {"measurement": "% Purity after 14 days", "setting": "[3]; 23° C.", "value": ">97", "unit": "%"}]}
{"compound": "DOTA-L-R-E-L-H-L-N—N—N—OH [Compound 12]", "values": [{"measurement": "% Purity after 1 day", "setting": "[1]; 4° C.", "value": ">99", "unit": "%"}, {"measurement": "% Purity after 7 days", "setting": "[1]; 4° C.", "value": ">99", "unit": "%"}, {"measurement": "% Purity after 1 day", "setting": "[1]; 23° C.", "value": ">99", "unit": "%"}, {"measurement": "% Purity after 7 days", "setting": "[1]; 23° C.", "value": ">96", "unit": "%"}, {"measurement": "% Purity after 1 day", "setting": "[2]; 4° C.", "value": ">98", "unit": "%"}, {"measurement": "% Purity after 1 day", "setting": "[2]; 23° C.", "value": ">98", "unit": "%"}, {"measurement": "% Purity after 1 day", "setting": "[3]; 4° C.", "value": ">99", "unit": "%"}, {"measurement": "% Purity after 7 days", "setting": "[3]; 4° C.", "value": ">99", "unit": "%"}, {"measurement": "% Purity after 1 day", "setting": "[3]; 23° C.", "value": ">99", "unit": "%"}, {"measurement": "% Purity after 7 days", "setting": "[3]; 23° C.", "value": ">95", "unit": "%"}]}
{"compound": "[^68Ga]Ga-DOTA-CBP8 [Comparative Tracer 1]", "values": [{"measurement": "SUV Kidney", "setting": "[5]", "value": 10}, {"measurement": "SUV Liver", "setting": "[5]", "value": 0.4}]}
{"compound": "H2N-L-R-E-L-H-L-N—N—N—K(DOTA-NH—(CH2CH2O)2—CH2—C(O))—NH2 [Compound 13]", "values": [{"measurement": "% Purity after 1 day", "setting": "[1]; 4° C.", "value": 100, "unit": "%"}, {"measurement": "% Purity after 7 days", "setting": "[1]; 4° C.", "value": 100, "unit": "%"}, {"measurement": "% Purity after 1 day", "setting": "[1]; 23° C.", "value": 100, "unit": "%"}, {"measurement": "% Purity after 7 days", "setting": "[1]; 23° C.", "value": 100, "unit": "%"}, {"measurement": "% Purity after 1 day", "setting": "[2]; 4° C.", "value": ">99", "unit": "%"}, {"measurement": "% Purity after 1 day", "setting": "[2]; 23° C.", "value": ">99", "unit": "%"}, {"measurement": "% Purity after 1 day", "setting": "[3]; 4° C.", "value": ">99", "unit": "%"}, {"measurement": "% Purity after 7 days", "setting": "[3]; 4° C.", "value": ">99", "unit": "%"}, {"measurement": "% Purity after 1 day", "setting": "[3]; 23° C.", "value": ">99", "unit": "%"}, {"measurement": "% Purity after 7 days", "setting": "[3]; 23° C.", "value": ">99", "unit": "%"}]}
